Results on one variant are retold here after IntAct's records for PubMed 11313760.

Sequences and labels used below:
B1: Prelamin-A/C (Homo sapiens), P02545-1 (parent)
chain: METPSQRRATRSGAQASSTPLSPTRITRLQEKEDLQELNDRLAVYIDRVRSLETENAGLRLRITESEEVVSREVSGIKAAYEAELGDARKTLDSVAKERARLQLELSKVREEFKELKARNTKKEGDLIAAQARLKDLEALLNSKEAALSTALSEKRTLEGELHDLRGQVAKLEAALGEAKKQLQDEMLRRVDAENRLQTMKEELDFQKNIYSEELRETKRRHETRLVEIDNGKQREFESRLADALQELRAQHEDQVEQYKKELEKTYSAKLDNARQSAERNSNLVGAAHEELQQSRIRIDSLSAQLSQLQKQLAAKEAKLRDLEDSLARERDTSRRLLAEKEREMAEMRARMQQQLDEYQELLDIKLALDMEIHAYRKLLEGEEERLRLSPSPTSQRSRGRASSHSSQTQGGGSVTKKRKLESTESRSSFSQHARTSGRVAVEEVDEEGKFVRLRNKSNEDQSMGNWQIKRQNGDDPLLTYRFPPKFTLKAGQVVTIWAAGAGATHSPPTDLVWKAQNTWGCGNSLRTALINSTGEEVAMRKLVRSVTVVEDDEDEDGDDLLHHHHGSHCSSSGDPAEYNLRSRTVLCGTCGQPADKASASGSGAQVGGPISSGSSASSVTVTRSYRSVGGSGGGSFGDNLVTRSYLLGNSSPRTQSPQNCSIM
partner: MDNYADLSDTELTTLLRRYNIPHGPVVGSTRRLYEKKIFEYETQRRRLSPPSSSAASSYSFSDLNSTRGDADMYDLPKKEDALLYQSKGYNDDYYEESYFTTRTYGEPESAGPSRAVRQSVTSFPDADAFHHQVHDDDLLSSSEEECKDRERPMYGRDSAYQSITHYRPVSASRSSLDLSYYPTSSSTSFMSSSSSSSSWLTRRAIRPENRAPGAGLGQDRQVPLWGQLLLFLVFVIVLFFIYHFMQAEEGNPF

In this assay the parent is B1. The following applies: with emd_human EMD.
Turning to R482Q, the “effect of a mutation on the interaction” value is on record as “with no effect”.
